The supplement of paper PMC9233669
This sample holds only a part of the variants without activity.

Columns and labels:
[1] = test system: biotinyl-Met-oxazolone; experiment: self-aminoacylation, catalytic enhancement (BMO) (fold over background); higher = more active; k-Seq, kA / k0A0; sequences stand for … in GGGAAUGGAUCCACAUCUACGAAUUC…UUCACUGCAGACUUGACGAAGCUG
Summary of the method: (§1)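 Mutagenized RNA pools with a 21-nt variable region (0.43 μM) reacted with each biotinyl-aminoacyl-oxazolone at 2–1250 μM. Reactions ran in 50 μL HEPES/NaCl/KCl/MgCl2/CaCl2 buffer with 5% acetonitrile, pH 6.9–7.0, for 90 minutes at room temperature. Streptavidin-captured RNA was quantified by triplicate qPCR and Illumina sequencing, and per-sequence fraction reacted was fit to a pseudo-first-order model with 1000 bootstraps. Catalytic enhancement is median kA divided by the uncatalyzed rate, the low-activity peak of a bimodal Gaussian fit.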

[2] = test system: biotinyl-Leu-oxazolone; experiment: self-aminoacylation, catalytic enhancement (BLO) (fold over background); higher = more active; k-Seq, kA / k0A0; sequences stand for … in GGGAAUGGAUCCACAUCUACGAAUUC…UUCACUGCAGACUUGACGAAGCUG
Summary of the method: as §1

[3] = test system: biotinyl-Ile-oxazolone; experiment: self-aminoacylation, catalytic enhancement (BIO) (fold over background); higher = more active; k-Seq, kA / k0A0; sequences stand for … in GGGAAUGGAUCCACAUCUACGAAUUC…UUCACUGCAGACUUGACGAAGCUG
Summary of the method: as §1

[4] = test system: biotinyl-Phe-oxazolone; experiment: self-aminoacylation, catalytic enhancement (BFO) (fold over background); higher = more active; k-Seq, kA / k0A0; sequences stand for … in GGGAAUGGAUCCACAUCUACGAAUUC…UUCACUGCAGACUUGACGAAGCUG
Summary of the method: as §1

[5] = test system: biotinyl-Val-oxazolone; experiment: self-aminoacylation, catalytic enhancement (BVO) (fold over background); higher = more active; k-Seq, kA / k0A0; sequences stand for … in GGGAAUGGAUCCACAUCUACGAAUUC…UUCACUGCAGACUUGACGAAGCUG
Summary of the method: as §1

[6] = test system: biotinyl-Trp-oxazolone; experiment: self-aminoacylation, catalytic enhancement (BWO) (fold over background); higher = more active; k-Seq, kA / k0A0; sequences stand for … in GGGAAUGGAUCCACAUCUACGAAUUC…UUCACUGCAGACUUGACGAAGCUG
Summary of the method: as §1

| Sequence | self-aminoacylation [1] | self-aminoacylation [2] | self-aminoacylation [3] | self-aminoacylation [4] | self-aminoacylation [5] | self-aminoacylation [6] |
| --- | --- | --- | --- | --- | --- | --- |
| CCACCCUUCAAGCAAGCGGUC [Fam1B.1 aminoacylation ribozyme variant] | 1.25 | 1.36 | 1.01 | 0.522 | 1.4 | 0.963 |
| AUUCACCUAGGACAUUGGGUG [Fam2.2 aminoacylation ribozyme variant] | 3.42 | 4 | 2.24 | 25.8 | 2.28 | 2.79 |
| AUUGACCUAGGUCAUCGGGUU [Fam2.2 aminoacylation ribozyme variant] | 13.9 | 18.8 | 7.25 | 98.6 | 6.49 | 12.2 |
| UUACUUCAGACAAUCGGUCUG [Fam1A.1 aminoacylation ribozyme variant] | 1.11 | 1.3 | 1.14 | 1.73 | 1.12 | 1.12 |
| CUAAUUCAAUCAAUCGGUCUG [Fam1A.1 aminoacylation ribozyme variant] | 0.742 | 0.735 | 0.805 | 4.62 | 0.72 | 2.7 |
| GAGUUUGCUAAUUGUCGCAAG [Fam3.1 aminoacylation ribozyme variant] | 1.34 | 1.53 | 1.36 | 2.2 | 1.24 | 2.06 |
| UCACACUUCCAGCAAUCGGUC [Fam1B.1 aminoacylation ribozyme variant] | 1.14 | 1.02 | 1.19 | 1.01 | 1.24 | 0.854 |
| CCACAUUUCAAGCAAUCGGCC [Fam1B.1 aminoacylation ribozyme variant] | 4.62 | 3.19 | 3.63 | 3.98 | 3.56 | 4.96 |
| AUUACCCUGGACAUUGAGUGA [Fam2.1 aminoacylation ribozyme variant] | 11.3 | 10.4 | 4.56 | 69.4 | 4.58 | 13.4 |
| AUUCACAUAUGUCAUCGGGUG [Fam2.2 aminoacylation ribozyme variant] | 7.09 | 9.08 | 4.44 | 52.5 | 4.21 | 7.3 |
| GUCCACCUAGGUCAUCGGGUG [Fam2.2 aminoacylation ribozyme variant] | 4.1 | 4.46 | 4.43 | 35.1 | 4.67 | 6.85 |
| AUUAACCUAGGUCAUCGCGUG [Fam2.2 aminoacylation ribozyme variant] | 6.95 | 10.2 | 4.57 | 59.2 | 4.66 | 7.14 |
| AUUACUCUGGUCAGCGAGUGA [Fam2.1 aminoacylation ribozyme variant] | 5.21 | 5.83 | 3.29 | 17.6 | 3.13 | 5.85 |
| AUUCGCCUAGGUCAUCGAGUG [Fam2.2 aminoacylation ribozyme variant] | 11.7 | 15.9 | 8.77 | 29.3 | 7.39 | 7.17 |
| CUACUUCAAAUAAUCGGUCCG [Fam1A.1 aminoacylation ribozyme variant] | 0.599 | 0.654 | 0.585 | 2.68 | 0.657 | 1.76 |
| AUUACCAUGGUCAUCGUGUGA [Fam2.1 aminoacylation ribozyme variant] | 4.58 | 4.26 | 1.9 | 27.8 | 2.2 | 5.96 |
| AUUCACUUAGGUUAUCGGGUG [Fam2.2 aminoacylation ribozyme variant] | 3.33 | 4.03 | 2.37 | 18.6 | 2.5 | 3.68 |
| AUGACCCUGGUCAUCGUGUGA [Fam2.1 aminoacylation ribozyme variant] | 2.76 | 2.88 | 1.4 | 17.4 | 1.5 | 2.61 |
| AAGGUUGCUAAUAAUCGCAAG [Fam3.1 aminoacylation ribozyme variant] | 1.11 | 1.19 | 1.41 | 1.47 | 1.02 | 1.59 |
| CUACUUGAAACAAUCGGUCUC [Fam1A.1 aminoacylation ribozyme variant] | 0.827 | 0.657 | 0.789 | 0.658 | 0.688 | 0.561 |
| AUUCAGCUAGGUCAUGGGGUG [Fam2.2 aminoacylation ribozyme variant] | 3.03 | 2.94 | 2.74 | 17.8 | 2.98 | 3.72 |
| CUACAUCAAACAAUCGGCCUG [Fam1A.1 aminoacylation ribozyme variant] | 1.35 | 1.41 | 1.25 | 2.89 | 1.25 | 2.21 |
| AGUACCCUGGUCAUCCAGUGA [Fam2.1 aminoacylation ribozyme variant] | 5.15 | 5.87 | 3.06 | 34.7 | 2.86 | 6.9 |
| AUUCCGCUGGUCAUCGAGUGA [Fam2.1 aminoacylation ribozyme variant] | 6.08 | 6.79 | 3.34 | 45.4 | 3.7 | 8.05 |
| CCACACUUCUAGCAAUCGGUG [Fam1B.1 aminoacylation ribozyme variant] | 3.47 | 4.64 | 2.65 | 19.8 | 2.62 | 3.09 |
| AUUCACCAAUGUCAUCGGGUG [Fam2.2 aminoacylation ribozyme variant] | 9.72 | 12.6 | 5.59 | 75.3 | 5.57 | 8.56 |

| Sequence | self-aminoacylation [1] | self-aminoacylation [2] | self-aminoacylation [3] | self-aminoacylation [4] | self-aminoacylation [5] | self-aminoacylation [6] |
| --- | --- | --- | --- | --- | --- | --- |
| CGACUUCAAACAAUGGGUCUG [Fam1A.1 aminoacylation ribozyme variant] | 1.2 | 0.941 | 1.2 | 0.777 | 1.09 | 0.968 |
| CUACUUUAAACAAUCGGUUUG [Fam1A.1 aminoacylation ribozyme variant] | 0.786 | 0.776 | 0.824 | 0.922 | 0.8 | 0.724 |
| AUUCACCUAGAUCAUGGGGUG [Fam2.2 aminoacylation ribozyme variant] | 5.3 | 6.83 | 3.07 | 31.5 | 2.61 | 4.68 |
| GUUAACCUAGGUCAUCGGGUG [Fam2.2 aminoacylation ribozyme variant] | 11.9 | 16.1 | 7.79 | 77.3 | 6.73 | 12.7 |
| ACGUUUGCUAAUAGUUGCAAG [Fam3.1 aminoacylation ribozyme variant] | 1.26 | 1.33 | 1.45 | 2.12 | 1.17 | 1.15 |
| AUUCACUUAGGUCUUCGGGUG [Fam2.2 aminoacylation ribozyme variant] | 3.58 | 3.95 | 2.96 | 22.7 | 2.71 | 4.2 |
| AUUACCCUGGUUAACGAGUGA [Fam2.1 aminoacylation ribozyme variant] | 14.1 | 14.4 | 5.85 | 106 | 6.35 | 17.3 |
| CUACUUCAAACAACCGGUCGG [Fam1A.1 aminoacylation ribozyme variant] | 1.05 | 1.24 | 0.978 | 1.17 | 1.08 | 0.808 |
| AUUCACCUAGGCCCUCGGGUG [Fam2.2 aminoacylation ribozyme variant] | 3.26 | 3.88 | 2.81 | 24.2 | 3.1 | 3.75 |
| AUUCACCUCGGUCAACGGGUG [Fam2.2 aminoacylation ribozyme variant] | 3.98 | 5.39 | 2.44 | 27.8 | 2.82 | 3.36 |
| AAGUUUACUAAUAGUCGCAAG [Fam3.1 aminoacylation ribozyme variant] | 1.23 | 1.3 | 1.4 | 2.7 | 1.32 | 1.5 |
| CUUACACUGGUCAUCGAGUGA [Fam2.1 aminoacylation ribozyme variant] | 4.19 | 4.41 | 2.65 | 10.2 | 2.69 | 4.94 |
| CCACACUUCAAGCGAUCGGUU [Fam1B.1 aminoacylation ribozyme variant] | 1.48 | 1.53 | 1.77 | 3.6 | 2.08 | 1.77 |
| CUACUUCAGACAAUCGGUCCG [Fam1A.1 aminoacylation ribozyme variant] | 1 | 1.01 | 0.811 | 0.81 | 0.695 | 1.38 |
| ACUCACCUAGGACAUCGGGUG [Fam2.2 aminoacylation ribozyme variant] | 3.82 | 4.64 | 3.36 | 20.1 | 4.87 | 4.88 |
| CCGCACUUCAAGCAAUCGGUG [Fam1B.1 aminoacylation ribozyme variant] | 7.36 | 10.3 | 5.07 | 55.1 | 5.59 | 8.54 |
| AAGUUUGUUAAUAGACGCAAG [Fam3.1 aminoacylation ribozyme variant] | 0.587 | 0.399 | 0.583 | 0.803 | 0.536 | 0.609 |
| CCACACUGCAAGCACUCGGUC [Fam1B.1 aminoacylation ribozyme variant] | 1.54 | 1.39 | 1.63 | 2.57 | 1.66 | 1.47 |
| AGUCACCUAGGUUAUCGGGUG [Fam2.2 aminoacylation ribozyme variant] | 4.56 | 4.68 | 4.39 | 32.2 | 4.56 | 6.62 |
| AUUGACCUAGGUCACCGGGUG [Fam2.2 aminoacylation ribozyme variant] | 4.69 | 6.34 | 4.43 | 29.6 | 4.87 | 6.05 |
| AUUACCCUCGUCAUCGAGUGG [Fam2.1 aminoacylation ribozyme variant] | 1.31 | 1.46 | 0.948 | 0.728 | 0.932 | 0.389 |
| AUUCACGUAGGCCAUCGGGUG [Fam2.2 aminoacylation ribozyme variant] | 4.29 | 4.12 | 3.71 | 48.1 | 5.3 | 5.37 |
| AAGUUUGCUAAUAGUCUGAAG [Fam3.1 aminoacylation ribozyme variant] | 0.971 | 0.996 | 1.01 | 3.77 | 1.07 | 1.34 |
| CUACUCGAAACAAUCGGUCUG [Fam1A.1 aminoacylation ribozyme variant] | 0.942 | 0.84 | 0.837 | 0.599 | 1.01 | 0.979 |
| AUAACCCUGGUCAUCGAAUGA [Fam2.1 aminoacylation ribozyme variant] | 1.07 | 0.798 | 0.882 | 0.579 | 0.954 | 0.785 |
